Marks after values point to notes of the source that are not given here.
Experiments:
MRSA-M2 [1] = experiment: Rabbit tibial osteomyelitis model: vaccination, MRSA challenge, then vancomycin therapy; details: rabbits, 75 μg each antigen per injection
MRSA-M2 [2] = experiment: Rabbit tibial osteomyelitis (biofilm) infection model: vaccination, then intratibial MRSA-M2 challenge; assay type: in vivo, Staphylococcus aureus
Procedure: Animals were divided at random into groups.
Production of osteomyelitis. […] The infection was allowed to progress for 14 days.
Analysis of vaccine efficacy. Vaccine efficacy was evaluated in three ways.
Among these antigens, autolysin (AtlA) was one of the most immunoreactive. Because of its reported role in biofilm formation (31, 32) and its up-regulation during early biofilm growth (when an immune response could theoretically eradicate the biofilm), autolysin was tested as a vaccine. Purified recombinant glucosaminidase (one of the two protein components of AtlA) was injected into rabbits (three doses of 10 μg each, 10 days apart) and then animals were challenged using a tibial osteomyelitis infection.
Antibodies elicited by a single antigen vaccine may not provide adequate immunological recognition of the biofilm in vivo to enable complete microbial clearance. […] Therefore, the aforementioned antigens were tested as a multi-component vaccine. To this end, animals were vaccinated with 10 μg of each of four antigens: glucosaminidase, SA0688 (an ABC transporter lipoprotein), SA0037 (a conserved hypothetical protein), and SA0486 (a hypothetical lipoprotein), following the same dosing schedule as above. […] As well, vaccinated animals trended to lower CFU counts and an 88% reduction in bacterial loads in the tibia (FIG. 3A—quadrivalent). However, this reduction in bacterial populations was not statistically significant. Two doses of the combined vaccine at 15 μg each per dose were also studied, wherein increasing the prime and boost may lead to a more robust initial immune response when the biofilm is immature (and thus, enable clearance by the immune response).

## CN[C@H](CC(C)C)C(=O)N[C@H]1C(=O)N[C@@H](CC(N)=O)C(=O)N[C@H]2C(=O)N[C@H]3C(=O)N[C@H](C(=O)N[C@H](C(=O)O)c4cc(O)cc(O)c4-c4cc3ccc4O)[C@H](O)c3ccc(c(Cl)c3)Oc3cc2cc(c3O[C@@H]2O[C@H](CO)[C@@H](O)[C@H](O)[C@H]2O[C@H]2C[C@](C)(N)[C@H](O)[C@H](C)O2)Oc2ccc(cc2Cl)[C@H]1O [PBS + vancomycin, vancomycin]
MRSA-M2 [1]; vancomycin 40 mg/kg twice daily for ten days
  Percentage showing clinical signs of infection: 100%
MRSA-M2 [1]; vancomycin 40 mg/kg twice daily for ten days from 14 days after challenge, score 0 to 4+
  Mean radiological score: 2.1

B1: Glucosaminidase: Purified recombinant S. aureus glucosaminidase (SEQ ID NO:1), one of the two protein components of autolysin AtlA (protein, listed as Staphylococcus aureus)
chain: MAKKFNYKLPSMVALTLVGSAVTAHQVQAAETTQDQTTNKNVLDSNKVKATTEQAKAEVKNPTQNISGTQVYQDPAIVQPKAANKTGNAQVNQKVDTTQVNGDTRATQSTTSNNAKPVTKSTNTTAPKTNNNVTSAGYSLVDDEDDNSENQINPELIKSAAKPAALETQYKAAAPKATPVAPKAKTEATPKVTTFSASAQPRSAAAAPKTSLPKYKPQVNSSINDYIRKNNLKAPKIEEDYTSYFPKYAYRNGVGRPEGIVVHDTANDRSTINGEISYMKNNYQNAFVHAFVDGDRIIETAPTDYLSWGVGAVGNPRFINVEIVHTHDYASFARSMNNYADYAATQLQYYGLKPDSAEYDGNGTVWTHYAVSKYLGGTDHADPHGYLRSHNYSYDQLYDLINEKYLIKMGKVAPWGTQSTTTPTTPSKPSTPSKPSTPSTGKLTVAANNGVAQIKPTNSGLYTTVYDKTGKATNEVQKTFAVSKTATLGNQKFYLVQDYNSGNKFGWVKEGDVVYNTAKSPVNVNQSYSIKPGTKLYTVPWGTSKQVAGSVSGSGNQTFKASKQQQIDKSIYLYGSVNGKSGWVSKAYLVDTAKPTPTPTPKPSTPTTNNKLTVSSLNGVAQINAKNNGLFTTVYDKTGKPTKEVQKTFAVTKEASLGGNKFYLVKDYNSPTLIGWVKQGDVIYNNAKSPVNVMQTYTVKPGTKLYSVPWGTYKQEAGAVSGTGNQTFKATKQQQIDKSIYLYGTVNGKSGWISKAYLAVPAAPKKAVAQPKTAVKAYAVTKPQTTQTVSKIAQVKPNNTGIRASVYEKTAKNGAKYADRTFYVTKERAHGNETYVLLNNTSHNIPLGWFNVKDLNVQNLGKEVKTTQKYTVNRSNNGLSMVPWGTKNQVILTGNNIAQGTFNATKQVSVGKDVYLYGTINNRTGWVNSKDLTAPTAVKPTTSAAKDYNYTYVIKNGNGYYYVTPNSDTAKYSLKAFNEQPFAVVKEQVINGQTWYYGKLSNGKLAWIKSTDLAKELIKYNQIGMTLNQVAQIQAGLQYKPQVQRVPGKWTDANFNDVKHAMDTKRLAQDPALKYQFLRLDQPQNISIDKINQFLKGKGVLENQGAAFNKAAQMYGINEVYLISHALLETGNGTSQLAKGADVVNNKVVTNSNTKYHNVFGIAAYDNDPLREGIKYAKQAGWDTVSKAIVGGAKFIGNSYVKAGQNTLYKMRWNPAHPGTHQYATDVDWANINAKIIKGYYDKIGEVGKYFDIPQYK
MRSA-M2 [2]; New Zealand White rabbits, three i.m. doses of 10 μg (each antigen), 10 days apart, 14 days after intratibial MRSA, score 0 to 4+ (Table 2)
  Mean radiological score: 0.37*
MRSA-M2 [2]; rabbits cleared of infection, 4 glucosaminidase, 5 multi-component animals, three doses of 10 μg (each antigen)
  Number cleared: 1
MRSA-M2 [2]; rabbits, three doses of 10 μg (each antigen), non-weight bearing on affected leg, 14 days after MRSA inoculation
  % showing clinical signs of infection: 0%
MRSA-M2 [2]; rabbits, three doses of 10 μg each, 10 days apart
  bacteriological signs of infection compared to PBS-vaccinated controls: did not lead to significant differences
MRSA-M2 [2]; rabbits, three doses of 10 μg, FIG. 1, PBS controls 9.84×10^7
  Mean CFU/grams bone in affected tibias: 3.6×10^7 CFU/grams bone

— patent publication US20110177111A1, “[…] AGAINST STAPHYLOCOCCUS AUREUS BIOFILMS […] WALL-[…]” (UNIVERSITY OF MARYLAND, BALTIMORE, priority 2008, published 2011)
